Reference: patent publication US7063946B2, “Methods, reagents, kits and apparatus for protein function analysis” (Meso Scale Technologies, LLC., priority 2001, dated 2006)

Columns and labels:
IkBa-24pp (SEQ ID NO: 1) = molecular target: T1, IkBa-24pp (SEQ ID NO: 1) (Homo sapiens, UniProt P25963); experiment: Single-well 4-spot assay for multiple peptide-protein interactions; format: binding
T1 construct: two phosphoserines in the DSGLDS motif (chemical modification); purchased New England Peptide, Fitchburg Mass; host or cells: chemical synthesis
From the text: Four phosphopeptides and their cognate binding proteins (Table 14) were selected for an integrated assay of multiple peptide-protein interaction in 4-spot Multi-Array plates. The IkBa-24pp peptide and its binding protein, βTRCP, are described in Example 10. The remaining peptides are derived from the carboxyl terminus of the EGF receptor. These phosphotyrosine containing peptides are recognized by different adaptor or effecter proteins of the receptor tyrosine kinase signaling pathway.
These four peptides were coupled to BSA carrier protein through cystine residue. After purification on PD-10 gel filtration columns, the peptide-BSA conjugates were then deposited on the assay domains of a 4-spot multi-array IPR plate (i.e., in one of the four exposed regions of working electrode defined by the dielectric layer) with an automated micro-dispensing system (Bio-Dot Dispenser, Bio-Dot, Irvine Calif.). Typically about 120 fmole of peptide:BSA conjugate in 0.25 μl was deposited on each spot of a 4-spot multi-array IPR plate. These plates are dried then used or stored under desiccated conditions. […] Thus, in this assay format, each peptide not only serves as the capture agent for assaying specific interaction with its binding protein, but also at the same time serves as a control for other peptide-protein interaction to be determined in the same well. […]

[1] = molecular target: T2, Myc peptide (SEQ ID NO: 4) (Homo sapiens, UniProt P01106); experiment: 96-well screen for phosphopeptide binding proteins, 7-spot IPR plates; details: two steps of normalization; top 9 clones
T2 construct: phosphothreonine (T58) and phosphoserine (S62) (chemical modification); purchased New England Peptide, Fitchburg Mass; host or cells: chemical synthesis
Method: (§1) A screen was conducted using 7-spot IPR plates. The 7 spot NPT IPR plates are described in more detail in copending Provisional Application No. 60/301,932 (entitled “Assay Plates, Reader Systems and Methods for Luminescence Test Measurements”, filed on Jun. 29, 2001, hereby incorporated by reference) and particularly in the description of Plate Type D in Example 6.1 (NPT IPR plate) and U.S. application Ser. Nos. 10/185,274 and 10/185,363, filed Jun. 28, 2002, each hereby incorporated by reference. These plates consist of a 96 wells with 7 zones (spots) for the immobilization of proteins or other reagents. Each spot was coated with BSA conjugated to either a single phosphopeptide or multiple phosphopeptides.
The plates were prepared essentially as described in example 12. The seven spots supported, respectively, the following BSA conjugates IkB, pY992, pY1068, pY1148, Myc, “A”, and “6-P”. […]
For the assay, 4 ul from TnT reaction product described above were added to the coated plate containing 50 μl of binding buffer supplemented with 50 ng/well Ru-Streptavidin. […] The ECL signals were measured using an imaging plate reader (IPR). The raw data from the IPR reader was then normalized using two steps of normalization. […] These 50 lowest values were averaged and divided into each signal for that spot to generate a signal value which could be compared readily between the peptide-conjugate spots. […]

[2] = molecular target: T3, pY1068 peptide (SEQ ID NO: 7) (Homo sapiens, UniProt P00533); experiment: as above; details: two steps of normalization; top 9 clones
T3 construct: phosphotyrosine at Tyr1068 (chemical modification); purchased New England Peptide, Fitchburg Mass; host or cells: chemical synthesis
Method: as §1
(§2) The plates were prepared essentially as described in example 12. The seven spots supported, respectively, the following BSA conjugates IkB, pY992, pY1068, pY1148, Myc, “A”, and “6-P”. “A” refers to a conjugate of BSA with multiple peptides: IkB, pY1148, Myc which were then coupled to BSA. “6-P” refers to a conjugate of BSA with the following multiple peptides: IkB, pY1148, pY992, pY1068, Smad3C.
(§3) For the assay, 4 ul from TnT reaction product described above were added to the coated plate containing 50 μl of binding buffer supplemented with 50 ng/well Ru-Streptavidin. The binding reaction was allowed to proceed at room temperature for 1 hour with constant shaking. […] The ECL signals were measured using an imaging plate reader (IPR). The raw data from the IPR reader was then normalized using two steps of normalization. The first round was based on the 50 lowest values for a given specific spot.

pY1148 (SEQ ID NO: 9) = molecular target: T4, pY1148 (SEQ ID NO: 9) (Homo sapiens, UniProt P00533); experiment: as above; details: two steps of normalization; top 9 clones
T4 construct: phosphotyrosine at Tyr1148 (chemical modification); purchased New England Peptide, Fitchburg Mass; host or cells: chemical synthesis
Method: as §1, §2, §3

[3] = molecular target: T5, pY992 peptide (SEQ ID NO: 5) (Homo sapiens, UniProt P00533); experiment: as above; details: two steps of normalization; top 9 clones
T5 construct: phosphotyrosine at Tyr992 (chemical modification); purchased New England Peptide, Fitchburg Mass; host or cells: chemical synthesis
Method: as §1, §2, §3

EGFR = molecular target: T6, EGFR (Homo sapiens, UniProt P00533); experiment: EGFR binding assay, bound EGFR detected with TAG labeled anti-EGFR
T6 construct: autophosphorylated tyrosines (self-phosphorylated with ATP before use); purchased Sigma Chemical Co, MO

T1 sequence (P25963 with tags, fused parts or gaps limits assumed): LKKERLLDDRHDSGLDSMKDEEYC
T2 sequence (P01106 with tags, fused parts or gaps limits assumed): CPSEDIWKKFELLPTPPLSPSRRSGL

ECL signal, spot 1 IkBa-24pp (IkBa-24pp (SEQ ID NO: 1); 4-spot plate)	fold higher ECL signal from spot 1 than with TnT mixtures containing no exogenous DNA (IkBa-24pp (SEQ ID NO: 1); spot 1 (IkBa-24pp-BSA conjugate)) [fold]	normalized ECL signal, Myc spot [1]	normalized ECL signal, pY1068 spot [2]	normalized ECL signal, pY1148 spot (pY1148 (SEQ ID NO: 9))	normalized ECL signal, pY992 spot [3]	ECL signal (EGFR; +EGFR)	ECL signal (EGFR; no EGFR)	Molecule
5040	100	10						4237375: IMAGE clone protein: βTRCP2 (protein) MEPDSVIEDKTIELMCSVPRSLWLGCANLVESMCALSCLQSMPSVRCLQISNGTSSVIVSRKRPSEGNYQKEKDLCIKYFDQWSESDQVEFVEHLISRMCHYQHGHINSYLKPMLQRDFITALPEQGLDHIAENILSYLDARSLCAAELVCKEWQRVISEGMLWKKLIERMVRTDPLWKGLSERRGWDQYLFKNRPTDGPPNSFYRSLYPKIIQDIETIESNWRCGRHNLQRIQCRSENSKGVYCLQYDDEKIISGLRDNSIKIWDKTSLECLKVLTGHTGSVLCLQYDERVIVTGSSDSTVRVWDVNTGEVLNTLIHHNEAVLHLRFSNGLMVTCSKDRSIAVWDMASATDITLRRVLVGHRAAVNVVDFDDKYIVSASGDRTIKVWSTSTCEFVRTLNGHKRGIACLQYRDRLVVSGSSDNTIRLWDIECGACLRVLEGHEELVRCIRFDNKRIVSGAYDGKIKVWDLQAALDPRAPASTLCLRTLVEHSGRVFRLQFDEFQIISSSHDDTILIWDFLNVPPSAQNETRSPSRTYTYISR
			55	4	10	30,389	2,271	4419252: IMAGE clone protein: PLCγ (protein) MAGAASPCANGCGPGAPSDAEVLHLCRSLEVGTVMTLFYSKKSQRPERKTFQVKLETRQITWSRGADKIEGAIDIREIKEIRPGKTSRDFDRYQEDPAFRPDQSHCFVILYGMEFRLKTLSLQATSEDEVNMWIKGLTWLMEDTLQAPTPLQIERWLRKQFYSVDRNREDRISAKDLKNMLSQVNYRVPNMRFLRERLTDLEQRSGDITYGQFAQLYRSLMYSAQKTMDLPFLEASTLRAGERPELCRVSLPEFQQFLLDYQGELWAVDRLQVQEFMLSFLRDPLREIEEPYFFLDEFVTFLFSKENSVWNSQLDAVCPDTMNNPLSHYWISSSHNTYLTGDQFSSESSLEAYARCLRMGCRCIELDCWDGPDGMPVIYHGHTLTTKIKFSDVLHTIKEHAFVASEYPVILSIEDHCSIAQQRNMAQYFKKVLGDTLLTKPVEISADGLPSPNQLKRKILIKHKKLAEGSAYEEVPTSMMYSENDISNSIKNGILYLEDPVNHEWYPHYFVLTSSKIYYSEETSSDQGNEDEEEPKEVSSSTELHSNEKWFHGKLGAGRDGRHIAERLLTEYCIETGAPDGSFLVRESETFVGDYTLSFWRNGKVQHCRIHSRQDAGTPKFFLTDNLVFDSLYDLITHYQQVPLRCNEFEMRLSEPVPQTNAHESKEWYHASLTRAQAEHMLMRVPRDGAFLVRKRNEPNSYAISFRAEGKIKHCRVQQEGQTVMLGNSEFDSLVDLISYYEKHPLYRKMKLRYPINEEALEKIGTAEPDYGALYEGRNPGFYVEANPMPTFKCAVKALFDYKAQREDELTFIKSAIIQNVEKQEGGWWRGDYGGKKQLWFPSNYVEEMVNPVALEPEREHLDENSPLGDLLRGVLDVPACQIAIRPEGKNNRLFVFSISMASVAHWSLDVAADSQEELQDWVKKIREVAQTADARLTEGKIMERRKKIALELSELVVYCRPVPFDEEKIGTERACYRDMSSFPETKAEKYVNKAKGKKFLQYNRLQLSRIYPKGQRLDSSNYDPLPMWICGSQLVALNFQTPDKPMQMNQALFMTGRHCGYVLQPSTMRDEAFDPFDKSSLRGLEPCAISIEVLGARHLPKNGRGIVCPFVEIEVAGAEYDSTKQKTEFVVDNGLNPVWPAKPFHFQISNPEFAFLRFVVYEEDMFSDQNFLAQATFPVKGLKTGYRAVPLKNNYSEDLELASLLIKIDIFPAKENGDLSPFSGTSLRERGSDASGQLFHGRAREGSFESRYQQPFEDFRISQEHLADHFDSRERRAPRRTRVNGDNRL
